Results reported in the supplement of paper PMC10065799, “High-throughput profiling of sequence recognition by tyrosine kinases and SH2 domains using bacterial peptide display” (eLife, 2023).

What was measured:
c-Src SH2 = assay: SH2 binding enrichment of the phosphorylated peptide, bacterial display (enrichment ratio); higher = better substrate or ligand; peptides without Tyr show the background
Grb2 SH2 = Grb2 SH2 (UniProt P62993); assay: as above
SHP2-C SH2 = assay: as above
FGFR3 = FGFR3 (UniProt P22607); assay: phosphorylation enrichment, bacterial display (enrichment ratio); higher = better substrate or ligand; peptides without Tyr show the background
FGFR3, sequence (P22607 whole entry, looked up): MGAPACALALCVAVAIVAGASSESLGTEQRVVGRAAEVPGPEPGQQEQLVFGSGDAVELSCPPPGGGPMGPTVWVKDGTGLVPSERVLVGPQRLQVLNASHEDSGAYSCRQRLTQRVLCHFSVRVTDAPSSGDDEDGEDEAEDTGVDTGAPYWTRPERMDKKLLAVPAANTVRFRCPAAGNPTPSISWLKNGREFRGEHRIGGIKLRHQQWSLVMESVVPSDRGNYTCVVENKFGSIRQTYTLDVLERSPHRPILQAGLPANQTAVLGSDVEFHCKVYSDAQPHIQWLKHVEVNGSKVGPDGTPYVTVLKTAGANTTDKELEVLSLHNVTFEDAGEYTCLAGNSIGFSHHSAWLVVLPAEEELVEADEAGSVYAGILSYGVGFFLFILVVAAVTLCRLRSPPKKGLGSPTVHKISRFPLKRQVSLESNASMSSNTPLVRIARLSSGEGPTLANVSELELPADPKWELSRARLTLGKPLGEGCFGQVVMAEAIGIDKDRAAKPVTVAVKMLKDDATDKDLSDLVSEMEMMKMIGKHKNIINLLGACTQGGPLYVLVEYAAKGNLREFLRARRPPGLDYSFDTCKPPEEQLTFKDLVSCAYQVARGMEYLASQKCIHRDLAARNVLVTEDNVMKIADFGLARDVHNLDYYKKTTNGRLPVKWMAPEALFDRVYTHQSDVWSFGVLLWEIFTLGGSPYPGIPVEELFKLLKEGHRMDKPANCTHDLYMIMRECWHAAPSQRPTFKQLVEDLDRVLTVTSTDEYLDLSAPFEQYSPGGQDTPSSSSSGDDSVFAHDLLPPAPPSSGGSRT

Fes = Fes (UniProt P07332); assay: as above
Fes, sequence (P07332 whole entry, looked up): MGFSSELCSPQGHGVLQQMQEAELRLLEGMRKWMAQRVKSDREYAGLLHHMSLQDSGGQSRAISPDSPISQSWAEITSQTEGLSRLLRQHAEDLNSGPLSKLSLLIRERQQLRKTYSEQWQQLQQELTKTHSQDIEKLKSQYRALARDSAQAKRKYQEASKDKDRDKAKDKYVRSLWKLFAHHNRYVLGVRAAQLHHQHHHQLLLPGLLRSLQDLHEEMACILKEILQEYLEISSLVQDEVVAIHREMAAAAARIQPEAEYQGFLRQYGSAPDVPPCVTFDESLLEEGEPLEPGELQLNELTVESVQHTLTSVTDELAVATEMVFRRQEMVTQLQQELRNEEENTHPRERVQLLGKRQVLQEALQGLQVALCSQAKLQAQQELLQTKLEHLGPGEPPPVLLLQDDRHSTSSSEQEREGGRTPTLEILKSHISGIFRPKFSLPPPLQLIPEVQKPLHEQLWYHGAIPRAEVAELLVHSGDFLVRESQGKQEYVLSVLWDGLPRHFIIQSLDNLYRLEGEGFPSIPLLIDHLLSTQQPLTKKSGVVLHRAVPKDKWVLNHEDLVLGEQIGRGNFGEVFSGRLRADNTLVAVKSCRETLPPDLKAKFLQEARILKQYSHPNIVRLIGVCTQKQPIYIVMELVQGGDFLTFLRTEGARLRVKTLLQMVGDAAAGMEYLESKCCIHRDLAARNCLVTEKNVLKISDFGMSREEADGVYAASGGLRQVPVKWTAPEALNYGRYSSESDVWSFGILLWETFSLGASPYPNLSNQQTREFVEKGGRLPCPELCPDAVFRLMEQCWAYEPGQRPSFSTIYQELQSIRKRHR

c-Abl (mouse) = assay: as above
EPHB1 = EPHB1 (UniProt P54762); assay: as above
Jak2 = Jak2 (UniProt O60674); assay: as above
Fyn = Fyn (UniProt P06241); assay: as above
Fyn, sequence (P06241 whole entry, looked up): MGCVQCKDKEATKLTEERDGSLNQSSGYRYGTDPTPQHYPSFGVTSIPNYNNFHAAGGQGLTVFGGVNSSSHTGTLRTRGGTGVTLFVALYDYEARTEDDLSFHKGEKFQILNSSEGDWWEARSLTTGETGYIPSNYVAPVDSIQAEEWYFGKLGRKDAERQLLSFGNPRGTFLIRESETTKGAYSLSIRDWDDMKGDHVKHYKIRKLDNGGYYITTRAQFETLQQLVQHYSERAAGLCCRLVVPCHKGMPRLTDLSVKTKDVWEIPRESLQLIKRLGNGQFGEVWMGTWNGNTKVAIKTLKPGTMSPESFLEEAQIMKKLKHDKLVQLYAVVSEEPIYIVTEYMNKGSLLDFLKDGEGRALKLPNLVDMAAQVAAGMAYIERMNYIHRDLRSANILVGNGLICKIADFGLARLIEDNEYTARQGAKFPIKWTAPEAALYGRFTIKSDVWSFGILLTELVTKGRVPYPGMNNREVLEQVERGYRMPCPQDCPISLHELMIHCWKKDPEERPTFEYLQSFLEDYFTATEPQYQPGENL

Fer (mouse) = assay: as above
Hck = Hck (UniProt P08631); assay: as above
MERTK = MERTK (UniProt Q12866); assay: as above
MERTK, sequence (Q12866 whole entry, looked up): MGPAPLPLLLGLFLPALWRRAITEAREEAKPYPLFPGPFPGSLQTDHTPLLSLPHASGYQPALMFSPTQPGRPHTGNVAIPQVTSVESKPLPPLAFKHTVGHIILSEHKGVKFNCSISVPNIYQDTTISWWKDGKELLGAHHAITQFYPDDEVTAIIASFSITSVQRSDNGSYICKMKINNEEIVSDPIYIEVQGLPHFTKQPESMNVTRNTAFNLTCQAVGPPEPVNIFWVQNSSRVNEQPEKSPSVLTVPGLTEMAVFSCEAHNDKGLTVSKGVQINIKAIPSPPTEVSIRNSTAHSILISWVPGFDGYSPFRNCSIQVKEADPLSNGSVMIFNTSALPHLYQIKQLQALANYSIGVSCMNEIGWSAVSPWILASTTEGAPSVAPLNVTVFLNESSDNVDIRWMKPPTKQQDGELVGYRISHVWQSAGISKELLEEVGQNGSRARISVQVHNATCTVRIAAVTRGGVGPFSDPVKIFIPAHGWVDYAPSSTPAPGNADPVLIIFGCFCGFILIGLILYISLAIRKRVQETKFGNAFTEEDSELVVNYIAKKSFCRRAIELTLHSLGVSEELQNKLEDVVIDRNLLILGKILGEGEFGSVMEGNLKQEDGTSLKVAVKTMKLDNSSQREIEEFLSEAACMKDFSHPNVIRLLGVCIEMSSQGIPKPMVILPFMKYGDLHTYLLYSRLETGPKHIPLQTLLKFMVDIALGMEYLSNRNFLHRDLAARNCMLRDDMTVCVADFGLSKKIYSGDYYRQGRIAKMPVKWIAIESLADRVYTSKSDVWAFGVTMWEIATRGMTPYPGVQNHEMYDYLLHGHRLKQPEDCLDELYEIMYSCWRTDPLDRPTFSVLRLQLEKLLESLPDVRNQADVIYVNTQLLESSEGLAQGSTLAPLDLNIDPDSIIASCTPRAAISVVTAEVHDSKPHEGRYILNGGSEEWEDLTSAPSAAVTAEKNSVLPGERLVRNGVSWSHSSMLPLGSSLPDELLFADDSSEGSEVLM

c-Src = assay: as above
EPHB2 = EPHB2 (UniProt P29323); assay: as above
EPHB2, sequence (P29323 whole entry, looked up): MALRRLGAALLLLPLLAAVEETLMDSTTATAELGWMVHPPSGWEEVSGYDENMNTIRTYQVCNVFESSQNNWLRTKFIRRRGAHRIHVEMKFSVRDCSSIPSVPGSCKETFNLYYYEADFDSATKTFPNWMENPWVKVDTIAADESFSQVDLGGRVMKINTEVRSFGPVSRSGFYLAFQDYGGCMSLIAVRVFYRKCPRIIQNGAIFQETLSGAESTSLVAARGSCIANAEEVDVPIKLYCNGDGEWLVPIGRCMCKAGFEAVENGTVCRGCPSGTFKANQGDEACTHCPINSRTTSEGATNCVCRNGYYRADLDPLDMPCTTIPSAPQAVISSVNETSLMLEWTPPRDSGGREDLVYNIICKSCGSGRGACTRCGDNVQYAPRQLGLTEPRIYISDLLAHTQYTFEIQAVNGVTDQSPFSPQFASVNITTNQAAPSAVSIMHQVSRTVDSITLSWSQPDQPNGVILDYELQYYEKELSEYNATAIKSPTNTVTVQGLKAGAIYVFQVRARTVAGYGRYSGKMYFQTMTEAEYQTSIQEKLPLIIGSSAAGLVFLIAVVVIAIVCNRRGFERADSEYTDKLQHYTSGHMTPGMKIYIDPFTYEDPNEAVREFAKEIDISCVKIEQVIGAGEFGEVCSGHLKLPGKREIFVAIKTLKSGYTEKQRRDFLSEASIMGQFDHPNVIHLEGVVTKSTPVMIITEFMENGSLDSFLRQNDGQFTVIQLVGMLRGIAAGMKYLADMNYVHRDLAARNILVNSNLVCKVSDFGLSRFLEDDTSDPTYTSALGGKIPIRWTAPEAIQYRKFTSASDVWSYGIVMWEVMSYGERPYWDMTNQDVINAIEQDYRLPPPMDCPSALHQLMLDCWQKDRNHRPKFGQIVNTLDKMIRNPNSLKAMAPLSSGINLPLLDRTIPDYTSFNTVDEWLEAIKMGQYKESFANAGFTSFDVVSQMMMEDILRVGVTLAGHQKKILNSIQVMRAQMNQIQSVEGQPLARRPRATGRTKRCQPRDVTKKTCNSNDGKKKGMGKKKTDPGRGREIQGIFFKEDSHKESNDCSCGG

AncSZ = assay: as above
FGFR1 = FGFR1 (UniProt P11362); assay: as above
FGFR1, sequence (P11362 whole entry, looked up, the tested form may be a part): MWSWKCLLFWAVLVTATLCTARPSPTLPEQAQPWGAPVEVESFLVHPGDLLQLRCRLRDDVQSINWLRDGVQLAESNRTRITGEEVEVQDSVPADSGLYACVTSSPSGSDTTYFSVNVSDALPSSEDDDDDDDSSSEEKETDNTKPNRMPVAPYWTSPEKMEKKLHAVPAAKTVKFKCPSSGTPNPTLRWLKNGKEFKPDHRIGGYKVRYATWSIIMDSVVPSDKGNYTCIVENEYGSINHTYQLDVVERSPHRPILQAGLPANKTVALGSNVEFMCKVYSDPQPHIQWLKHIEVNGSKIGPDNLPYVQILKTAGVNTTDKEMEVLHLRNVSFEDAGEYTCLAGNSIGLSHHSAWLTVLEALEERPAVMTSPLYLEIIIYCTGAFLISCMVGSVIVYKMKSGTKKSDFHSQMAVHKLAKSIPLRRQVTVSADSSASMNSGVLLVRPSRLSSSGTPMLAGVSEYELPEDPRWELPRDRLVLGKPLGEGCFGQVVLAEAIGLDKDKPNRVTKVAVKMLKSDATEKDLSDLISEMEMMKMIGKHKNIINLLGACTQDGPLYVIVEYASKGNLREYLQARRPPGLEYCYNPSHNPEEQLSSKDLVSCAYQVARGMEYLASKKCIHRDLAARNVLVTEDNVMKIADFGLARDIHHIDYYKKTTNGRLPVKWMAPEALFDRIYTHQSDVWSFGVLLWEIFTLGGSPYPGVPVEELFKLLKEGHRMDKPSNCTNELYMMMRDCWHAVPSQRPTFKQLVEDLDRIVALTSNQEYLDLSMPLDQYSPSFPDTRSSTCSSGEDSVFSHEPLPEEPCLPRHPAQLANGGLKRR
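Throughout, for SH2 binding enrichment of the phosphorylated peptide, bacterial display: peptide library displayed on the E. coli surface as eCPX fusions, selected cells deep-sequenced, score is each peptide's frequency after selection divided by its frequency in the input.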
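Throughout, for phosphorylation enrichment, bacterial display: 11-residue human phosphosite peptides and single-mutation variants displayed on the E. coli surface, counted by deep sequencing, each peptide's frequency after selection divided by its frequency in the unselected input library; frequency after pTyr selection over input frequency; kinase dosed for 20-30% of maximal phosphorylation in three min.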

Sequence | SH2 binding enrichment (c-Src SH2) | SH2 binding enrichment (Grb2 SH2) | SH2 binding enrichment (SHP2-C SH2) | phosphorylation enrichment (FGFR3) | phosphorylation enrichment (Fes) | phosphorylation enrichment (c-Abl (mouse)) | phosphorylation enrichment (EPHB1) | phosphorylation enrichment (Jak2) | phosphorylation enrichment (Fyn) | phosphorylation enrichment (Fer (mouse)) | phosphorylation enrichment (Hck) | phosphorylation enrichment (MERTK) | phosphorylation enrichment (c-Src) | phosphorylation enrichment (EPHB2) | phosphorylation enrichment (AncSZ) | phosphorylation enrichment (FGFR1)
VKYGAYINDFK [GLB1_Y488_N484K] | 2.57 | 7.46 | 1.06 | 0.463 | 0.791 | 0.605 | 0.455 | 0.573 | 0.568 | 0.353 | 0.379 | 0.381 | 0.566 | 0.46 | 0.691 | 0.363
DHAGMYGLGDR [MAPT_Y18_T17M] | 0.44 | 0.791 | 0.472 | 0.393 | 0.558 | 0.411 | 0.348 | 0.45 | 0.523 | 0.388 | 0.471 | 0.371 | 0.454 | 0.541 | 0.556 | 0.391
CKLFQYFLDHL [ATRX_Y1849_YF] | 1.34 | 1.57 | 1.41 | 0.873 | 1.41 | 0.933 | 0.693 | 1.3 | 0.536 | 0.635 | 0.585 | 0.526 | 0.524 | 0.605 | 1.37 | 0.647
TRSFKYLLLSM [NF1_Y491_YF] | 1.05 | 1.05 | 1.21 | 0.548 | 1.07 | 0.706 | 0.663 | 0.977 | 0.386 | 0.38 | 0.44 | 0.399 | 0.426 | 0.51 | 1.12 | 0.43
VTSLKYSTSPF [BRIP1_Y916_YF] | 0.455 | 1.09 | 0.664 | 0.689 | 0.695 | 0.482 | 0.469 | 0.711 | 0.433 | 0.408 | 0.464 | 0.412 | 0.403 | 0.507 | 0.605 | 0.435
TTPGPHRSIYF [MPG_Y71_Y71H] | 0.503 | 0.71 | 0.484 | 0.526 | 0.577 | 0.538 | 0.355 | 0.357 | 0.359 | 0.396 | 0.411 | 0.479 | 0.458 | 0.444 | 0.569 | 0.579
RNDLDYMDSRR [GAA_Y407_W402R] | 0.422 | 0.971 | 0.552 | 0.645 | 0.81 | 0.779 | 0.426 | 0.798 | 0.455 | 0.341 | 0.509 | 0.528 | 0.555 | 0.408 | 0.809 | 0.512
AELVRYFMEHH [PTPN11_Y80_Q79R_YF] | 0.625 | 0.807 | 0.632 | 0.471 | 0.883 | 0.493 | 0.458 | 0.621 | 0.414 | 0.427 | 0.46 | 0.421 | 0.433 | 0.526 | 0.653 | 0.454
EKMWSYTKSAE [GRIA3_Y705_M706T] | 0.473 | 0.869 | 0.937 | 0.529 | 0.748 | 0.68 | 0.426 | 0.592 | 0.425 | 0.411 | 0.451 | 0.44 | 0.464 | 0.487 | 0.658 | 0.419
EASEQHLTKAS [NRCAM_Y739_Y739H] | 0.53 | 0.903 | 0.598 | 0.551 | 0.859 | 0.663 | 0.38 | 0.692 | 0.48 | 0.497 | 0.447 | 0.343 | 0.396 | 0.496 | 0.887 | 0.433
CTLLPYYSAPV [DGKE_Y269_R273P] | 1.53 | 0.71 | 0.54 | 1.3 | 1.71 | 1.65 | 2.04 | 1.54 | 0.792 | 2.17 | 1.14 | 4.17 | 1.25 | 2.29 | 2.02 | 1.43
GHNDVYILEHV [GRIN2A_Y1423_S1425L] | 0.48 | 0.717 | 0.755 | 0.594 | 1.03 | 0.54 | 0.452 | 0.668 | 4.4 | 0.567 | 1.04 | 0.378 | 2.94 | 0.518 | 0.861 | 0.43
QNVADYMRCLM [RPL5_Y207_Y210C] | 0.624 | 0.912 | 0.725 | 0.969 | 1.62 | 0.911 | 1.03 | 1.37 | 0.729 | 0.797 | 0.652 | 0.42 | 0.444 | 0.801 | 1.68 | 0.753
HKGASYVFRLS [PTPRD_Y891] | 0.97 | 1.56 | 2.11 | 0.818 | 1.34 | 0.935 | 0.593 | 1.26 | 0.539 | 0.412 | 0.468 | 0.512 | 0.583 | 0.791 | 1 | 0.536
PNKAVYTKMMT [G6PD_Y401_E398K] | 3.63 | 0.959 | 4.8 | 0.423 | 0.562 | 0.426 | 0.467 | 0.59 | 0.422 | 0.656 | 0.437 | 0.332 | 0.601 | 0.519 | 0.65 | 0.661
PESIPYRKFTT [NTRK1_Y701_L700P] | 0.476 | 0.747 | 0.507 | 0.936 | 0.917 | 0.879 | 0.598 | 0.992 | 0.375 | 0.353 | 0.721 | 0.86 | 0.485 | 0.668 | 0.823 | 0.594
QLQQAYQEAFE [YWHAZ_Y149_S145L] | 2.03 | 0.83 | 1.07 | 3.04 | 2.69 | 1.6 | 1.43 | 1.77 | 1.23 | 1.72 | 1.67 | 1.29 | 1.12 | 1.69 | 2.59 | 1.76

Sequence | SH2 binding enrichment (c-Src SH2) | SH2 binding enrichment (Grb2 SH2) | SH2 binding enrichment (SHP2-C SH2) | phosphorylation enrichment (FGFR3) | phosphorylation enrichment (Fes) | phosphorylation enrichment (c-Abl (mouse)) | phosphorylation enrichment (EPHB1) | phosphorylation enrichment (Jak2) | phosphorylation enrichment (Fyn) | phosphorylation enrichment (Fer (mouse)) | phosphorylation enrichment (Hck) | phosphorylation enrichment (MERTK) | phosphorylation enrichment (c-Src) | phosphorylation enrichment (EPHB2) | phosphorylation enrichment (AncSZ) | phosphorylation enrichment (FGFR1)
MKKQKYGRIIM [HSD17B4_Y143] | 1.54 | 1.91 | 1.55 | 0.971 | 0.89 | 0.771 | 0.551 | 0.998 | 0.443 | 0.565 | 0.396 | 0.499 | 0.422 | 0.531 | 0.497 | 0.517
RASQEYHIVKK [PDZD2_Y557_S552R] | 1.11 | 1.01 | 1.03 | 0.784 | 1.08 | 0.841 | 0.754 | 1.06 | 0.289 | 0.571 | 0.607 | 0.356 | 0.643 | 0.471 | 0.772 | 0.881
NQNIGYKLGHR [KCNN3_Y268] | 0.481 | 1 | 0.782 | 0.358 | 0.49 | 0.313 | 0.324 | 0.391 | 0.361 | 0.322 | 0.396 | 0.344 | 0.398 | 0.303 | 0.402 | 0.339
IYRASYVPFAA [RBM47_Y541_G538R] | 0.611 | 0.866 | 0.742 | 0.645 | 0.897 | 7.02 | 0.81 | 0.82 | 0.593 | 0.521 | 0.657 | 0.66 | 0.681 | 0.571 | 1.04 | 0.562
STQAHYRLSAF [ADAMTS9_Y100_S96T] | 0.513 | 0.759 | 0.859 | 0.536 | 0.63 | 0.427 | 0.395 | 0.487 | 0.461 | 0.386 | 0.456 | 0.409 | 0.323 | 0.381 | 0.582 | 0.44
EIRTQDEAMAS [GFAP_Y242_Y242D] | 0.575 | 0.811 | 0.772 | 0.57 | 0.755 | 0.489 | 0.515 | 0.945 | 0.43 | 0.353 | 0.443 | 0.457 | 0.408 | 0.42 | 0.688 | 0.498
PRARTYCFKQE [KLHDC9_Y175_S171R_YF] | 1.35 | 1.38 | 1.12 | 0.517 | 0.458 | 0.591 | 0.345 | 0.435 | 0.421 | 0.383 | 0.502 | 0.355 | 0.458 | 0.301 | 0.519 | 0.395
ASPKSYPSQKH [CAP2_Y316_T311A] | 0.385 | 0.635 | 0.638 | 0.406 | 0.511 | 0.484 | 0.358 | 0.464 | 0.374 | 0.323 | 0.333 | 0.356 | 0.366 | 0.276 | 0.426 | 0.356
KPPFSYNALIR [FOXG1_Y186_M191R] | 0.742 | 1.01 | 0.956 | 0.519 | 0.807 | 0.565 | 0.478 | 0.618 | 0.482 | 0.446 | 0.53 | 0.477 | 0.504 | 0.55 | 0.695 | 0.505
VATRWYRSPEP [CDKL5_Y177_L182P] | 0.422 | 0.796 | 0.629 | 0.523 | 0.719 | 0.397 | 0.55 | 0.565 | 0.525 | 0.379 | 0.431 | 0.421 | 0.394 | 0.537 | 0.638 | 0.482
RGFDTYFGYLL [ARSB_Y165] | 0.417 | 1 | 1.42 | 3.3 | 1.63 | 1.56 | 5.14 | 5.83 | 8.58 | 3.59 | 7.09 | 4.01 | 6.46 | 8.25 | 2.15 | 3.58
SLEKSYKLPDG [ACTA1_Y242_E243K] | 0.469 | 0.889 | 0.592 | 0.455 | 0.757 | 0.574 | 0.408 | 0.649 | 0.397 | 0.429 | 0.393 | 0.462 | 0.41 | 0.434 | 0.658 | 0.467
DSILVYQGKEQ [USH2A_Y1909] | 0.493 | 0.707 | 0.595 | 0.533 | 0.761 | 0.536 | 0.451 | 0.734 | 0.433 | 0.414 | 0.621 | 0.333 | 0.515 | 0.43 | 0.717 | 0.434
FDNSVYQKTTE [LDLR_Y828_P826S] | 0.768 | 0.808 | 0.559 | 0.641 | 0.913 | 0.701 | 0.487 | 0.673 | 0.515 | 0.374 | 0.668 | 0.432 | 0.657 | 0.488 | 0.924 | 0.51
MGSFNYLGFPR [SPTLC2_Y178_A182P_YF] | 0.865 | 0.862 | 1.03 | 0.534 | 0.983 | 0.584 | 1.88 | 1.68 | 0.44 | 0.418 | 0.403 | 0.518 | 0.615 | 0.917 | 0.795 | 0.566
KRISCYEASYQ [PFKFB3_Y194] | 0.667 | 0.67 | 0.582 | 0.656 | 0.947 | 0.74 | 0.522 | 0.749 | 0.452 | 0.494 | 0.529 | 0.493 | 0.467 | 0.484 | 0.896 | 0.447
